{"source": "paper PMC4423205", "experiment_in_all_cases": "SPR", "settings_in_all_cases": "all L-ribonucleotides (L-RNA, mirror image); SPR (Biacore 2000), chemokine immobilized on CM4/CM5, physiological running buffer, 37 C; complex formation in 20 mM HEPES pH 7.4, 100 mM NaCl, 5 mM KCl, 1 mM …", "key": {"[1]": {"target": "CCL11 (eotaxin) (Homo sapiens) (UniProt P51671)", "sequence (P51671 24-97)": "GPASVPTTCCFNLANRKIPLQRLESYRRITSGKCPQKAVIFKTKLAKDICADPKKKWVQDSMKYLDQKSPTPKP"}, "[2]": {"target": "CCL13 (MCP-4) (Homo sapiens) (UniProt Q99616)", "sequence (Q99616 24-98)": "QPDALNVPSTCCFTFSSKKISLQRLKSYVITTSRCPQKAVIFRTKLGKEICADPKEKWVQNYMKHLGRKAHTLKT"}, "[3]": {"target": "CCL2 (MCP-1), wild type (Homo sapiens) (UniProt P13500)", "sequence (P13500 24-99)": "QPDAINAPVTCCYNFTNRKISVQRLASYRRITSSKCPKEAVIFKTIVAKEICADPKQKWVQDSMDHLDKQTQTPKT"}, "[4]": {"target": "CCL2 K19A K42A (Homo sapiens) (UniProt P13500)", "sequence (P13500 24-99 K42A)": "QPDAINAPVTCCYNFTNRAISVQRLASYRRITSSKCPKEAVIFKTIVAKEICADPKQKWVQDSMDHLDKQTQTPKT"}, "[5]": {"target": "CCL2 R18A R41A (Homo sapiens) (UniProt P13500)", "sequence (P13500 24-99 R41A)": "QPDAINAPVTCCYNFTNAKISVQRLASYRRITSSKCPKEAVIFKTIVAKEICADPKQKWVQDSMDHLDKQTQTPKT"}, "[6]": {"target": "CCL2 R24A R47A (Homo sapiens) (UniProt P13500)", "sequence (P13500 24-99 R47A)": "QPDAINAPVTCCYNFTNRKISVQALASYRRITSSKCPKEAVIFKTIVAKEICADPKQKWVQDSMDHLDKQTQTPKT"}, "[7]": {"target": "CCL2 S21P S44P (Homo sapiens) (UniProt P13500)", "sequence (P13500 24-99 S44P)": "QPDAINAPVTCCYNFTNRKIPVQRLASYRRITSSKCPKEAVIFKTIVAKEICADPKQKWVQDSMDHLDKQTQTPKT"}, "[8]": {"target": "CCL2 S63F S86F (Homo sapiens) (UniProt P13500)", "sequence (P13500 24-99 S86F)": "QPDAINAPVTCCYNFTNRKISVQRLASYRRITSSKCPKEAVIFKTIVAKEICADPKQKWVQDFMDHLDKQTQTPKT"}, "[9]": {"target": "CCL2 S63Y S86Y (Homo sapiens) (UniProt P13500)", "sequence (P13500 24-99 S86Y)": "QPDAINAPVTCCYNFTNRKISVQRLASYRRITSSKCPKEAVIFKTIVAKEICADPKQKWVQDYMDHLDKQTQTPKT"}, "[10]": {"target": "T1, CCL8 (MCP-2) (Homo sapiens) (UniProt P80075)", "T1 sequence": "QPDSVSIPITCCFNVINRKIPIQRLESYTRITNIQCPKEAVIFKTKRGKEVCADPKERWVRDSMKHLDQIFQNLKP"}}, "data": [{"sequence": "GCACGUCCCUCACCGGUGCAAGUGAAGCCGUGGCUCUGCG [NOX-E36 L-aptamer (Spiegelmer, without PEG)]", "values": [{"measurement": "Kd", "setting": "[1]", "value": 0.00306, "unit": "µM"}, {"measurement": "Kd", "setting": "[2]", "value": 0.022, "unit": "µM"}, {"measurement": "Kd", "setting": "[3]", "value": 0.00132, "unit": "µM"}, {"measurement": "Kd", "setting": "[4]", "value": 4.13, "unit": "µM"}, {"measurement": "Kd", "setting": "[5]", "value": 0.0141, "unit": "µM"}, {"measurement": "Kd", "setting": "[6]", "value": 8.28, "unit": "µM"}, {"measurement": "Kd", "setting": "[7]", "value": 0.00794, "unit": "µM"}, {"measurement": "Kd", "setting": "[8]", "value": 0.0544, "unit": "µM"}, {"measurement": "Kd", "setting": "[9]", "value": 0.0744, "unit": "µM"}, {"measurement": "Kd", "setting": "[10]", "value": 0.00335, "unit": "µM"}]}]}
